Measured values as given in patent US20230059690A1 (published 2023).

T1: cynomolgus monkey PSMA (cynomolgus monkey, UniProt A0A2K5VNZ0 44-750)
T1 chain: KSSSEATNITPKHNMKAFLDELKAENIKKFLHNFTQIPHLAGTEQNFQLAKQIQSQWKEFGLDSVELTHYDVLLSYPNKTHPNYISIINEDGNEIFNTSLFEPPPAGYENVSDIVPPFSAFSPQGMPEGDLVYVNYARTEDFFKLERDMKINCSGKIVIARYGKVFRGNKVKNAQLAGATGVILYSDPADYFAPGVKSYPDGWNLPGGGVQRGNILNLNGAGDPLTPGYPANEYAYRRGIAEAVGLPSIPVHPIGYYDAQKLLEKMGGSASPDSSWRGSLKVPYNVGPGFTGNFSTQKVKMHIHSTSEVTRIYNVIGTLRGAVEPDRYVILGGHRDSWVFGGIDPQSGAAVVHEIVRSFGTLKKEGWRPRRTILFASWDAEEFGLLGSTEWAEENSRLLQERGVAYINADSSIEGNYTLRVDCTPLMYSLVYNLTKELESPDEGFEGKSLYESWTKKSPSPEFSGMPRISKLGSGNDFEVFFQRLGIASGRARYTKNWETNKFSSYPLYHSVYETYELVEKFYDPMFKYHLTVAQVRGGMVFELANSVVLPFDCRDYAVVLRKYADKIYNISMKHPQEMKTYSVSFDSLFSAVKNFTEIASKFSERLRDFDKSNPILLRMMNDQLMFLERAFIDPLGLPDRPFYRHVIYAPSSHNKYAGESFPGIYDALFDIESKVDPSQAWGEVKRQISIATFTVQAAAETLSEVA


Legend:
cynomolgus monkey PSMA [1] = biological target: T1, cynomolgus monkey PSMA; assay: SPR
human PSMA [2] = biological target: T2, human PSMA (human, UniProt Q04609 44-750); assay: SPR
T2 sequence (Q04609 44-750): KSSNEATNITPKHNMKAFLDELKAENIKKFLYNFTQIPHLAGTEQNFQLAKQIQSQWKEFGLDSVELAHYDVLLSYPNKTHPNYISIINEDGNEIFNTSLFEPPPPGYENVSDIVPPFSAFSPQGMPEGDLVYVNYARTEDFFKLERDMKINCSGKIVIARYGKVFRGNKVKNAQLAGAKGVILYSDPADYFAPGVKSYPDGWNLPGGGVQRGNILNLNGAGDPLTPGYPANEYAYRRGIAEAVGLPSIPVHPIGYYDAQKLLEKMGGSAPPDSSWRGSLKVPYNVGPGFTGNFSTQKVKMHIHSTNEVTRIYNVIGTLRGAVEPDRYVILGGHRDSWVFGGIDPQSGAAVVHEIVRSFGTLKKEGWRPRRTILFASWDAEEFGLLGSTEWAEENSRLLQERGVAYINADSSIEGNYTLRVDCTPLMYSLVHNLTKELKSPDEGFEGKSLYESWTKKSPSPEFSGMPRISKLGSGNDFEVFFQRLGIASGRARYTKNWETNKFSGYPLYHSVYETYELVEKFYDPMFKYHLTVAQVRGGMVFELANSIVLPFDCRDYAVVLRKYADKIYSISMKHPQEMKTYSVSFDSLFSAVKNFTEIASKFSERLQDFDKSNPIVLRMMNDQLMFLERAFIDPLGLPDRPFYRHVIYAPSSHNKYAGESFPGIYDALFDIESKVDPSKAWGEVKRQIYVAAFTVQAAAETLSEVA

cynomolgus monkey PSMA [3] = biological target: T1, cynomolgus monkey PSMA; assay: ELISA
human PSMA [4] = biological target: T2, human PSMA; assay: ELISA
cynomolgus monkey PSMA [5] = biological target: T1, cynomolgus monkey PSMA; assay: FACS; CHO-cyno PSMA cells
human PSMA [6] = biological target: T2, human PSMA; assay: FACS; CHO-human PSMA cells
human PSMA [7] = biological target: T2, human PSMA; assay: FACS; Rat1(e) hPSMA cells, lot RC6647
human PSMA [8] = biological target: T2, human PSMA; assay: FACS; Rat1(e) hPSMA cells, lot RC6589

Row | Kd (cynomolgus monkey PSMA [1]) [nM] | Kd (human PSMA [2]) [nM] | Kd (cynomolgus monkey PSMA [3]) [nM] | Kd (human PSMA [4]) [nM] | Kd (cynomolgus monkey PSMA [5]) [nM] | Kd (human PSMA [6]) [nM] | Kd (human PSMA [7]) [nM] | Kd (human PSMA [8]) [nM] | Binder
1 | 47 | 59 | 0.104 | 0.138 | 0.431 | 0.709 | 0.761 |  | cHv75-2a11.G1(L328C)k (antibody, V domains shown) VH: QVQLVESGGGVVQPGRSLRLSCAASGFTFSSYDMHWVRQAPGKGLEWVAVIWYDGSNKYYADSLKGRFTISRDNSKNTLYLQMNSLRAEDTAVYYCARVIAARTFYYYGMDVWGQGTTVTVSS VL: not shown
2 | 36 | 11 | 0.063 | 0.074 | 0.166 | 0.094 |  | 0.205 | cHv75-2a7.G1(C99Y;L328C)k (antibody, V domains shown) VH: EVQLVESGGGLVQPGGSLRLSCAASGITFSNYWMSWVRQAPGKGLEWVANIKKDGSEKFYVDSVKGRFTISRDNAKNSLYLQINSLRAEDTAMYYCAREIQLYLQHWGQGTLVTVSS VL: DIQMTQSPSSVSASVGGRVTITCRASQGISNWLAWYQQKPGKAPKLLIYAASSLQSGVPSRFSGSGSGTDFTLTISNLQPEDFASYYCQQANSFPLTFGGGTKVEIKR
